Starred links: 1 amine or outer side, 2 acyl side, 3 side chain; linkers in the order of their positions; H or OH if unused. Positions of bridges follow the written chain, without caps; N, C: chain ends. Non-standard residues stand in square brackets, D forms with d. Primed or numbered codes have the meaning given here. No end group written: not given here. *: point of attachment. PyrS2″ = (S)-3-amino-1-((pent-4-en-1-yloxy)carbonyl)pyrrolidine-3-carboxylic acid (stapling residue), C=CCCCOC(=O)N1CC[C@@](N[*:1])(C(=O)[*:2])C1; B5(4) = 2,2-bis(4-pentenyl)glycine = 2-amino-2-(pent-4-en-1-yl)hept-6-enoic acid (stitching residue), C=CCCCC(CCCC=C)(N[*:1])C(=O)[*:2]; B5(5) = 2,2-bis(4-pentenyl)glycine, 2-amino-2-(pent-4-en-1-yl)hept-6-enoic acid (stitching residue), C=CCCCC(CCCC=C)(N[*:1])C(=O)[*:2]; TfeGA = (S)-2-amino-3-((carboxymethyl)(2,2,2-trifluoroethyl)amino)propanoic acid, O=C([C@H](CN(CC(=O)[*:3])CC(F)(F)F)N[*:1])[*:2]; B5(3) = 2,2-bis(4-pentenyl)glycine (stitching residue), C=CCCCC(CCCC=C)(N[*:1])C(=O)[*:2]; ProSAm3 = (allylsulfonyl)-D-proline, C=CCS(=O)(=O)N1CCC[C@@H]1C(=O)*; Phe(3-Ph) = N[C@@H](Cc1cccc(-c2ccccc2)c1)C(=O)O; Phe(3-COOH) = N[C@@H](Cc1cccc(C(=O)O)c1)C(=O)O; Phe(2-CF3) = N[C@@H](Cc1ccccc1C(F)(F)F)C(=O)O; Asp(3,3-Me2) = CC(C)(C(=O)O)[C@H](N)C(=O)O; Asp(3R-OH) = N[C@H](C(=O)O)[C@@H](O)C(=O)O; Phe(2-Cl) = N[C@@H](Cc1ccccc1Cl)C(=O)O; Phe(3-F) = N[C@@H](Cc1cccc(F)c1)C(=O)O; Phe(4-F) = N[C@@H](Cc1ccc(F)cc1)C(=O)O; Bta = N[C@@H](Cc1csc2ccccc12)C(=O)O; Lys(iPr) = CC(C)NCCCC[C@H](N)C(=O)O; αAllylPro = C=CC[C@@]1(C(=O)O)CCCN1; Azidoacetyl = [N-]=[N+]=NCC(=O)*; tBuAla = CC(C)(C)C[C@H](N)C(=O)O; 3Thi = N[C@@H](Cc1ccsc1)C(=O)O; 2F3MeF″ = Phe derivative; Ac3c = NC1(C(=O)O)CC1; ClAc = O=C(CCl)*

As usually defined, the EC50 is the midpoint of the concentration-response curve. By IC50 is commonly meant the point on the concentration scale where inhibition reaches its midpoint. Lower therefore signals greater potency in that assay.

B1: I-2267 (peptide)
peptide: [ProSAm3]D[tBuAla][B5(3)]D[TfeGA]AAFL[PyrS2″][3Thi][Bta]Q-NH2
modifications: staple (positions not given here); staple 4-11; not fully specified (bridges); also: staple double bonds reduced to -CH2-CH2-

One assay concerns the target full-length beta-Catenin (Uniprot ID P35222) (Homo sapiens (Human)) (UniProt P35222). Put plainly: fluorescence polarization competition vs 5FAM-TCF4(10-53) on full-length beta-catenin. (In general: Polarisation of emitted light reports the rotation of a fluorescent probe.)
Target sequence in this assay (P35222 whole entry): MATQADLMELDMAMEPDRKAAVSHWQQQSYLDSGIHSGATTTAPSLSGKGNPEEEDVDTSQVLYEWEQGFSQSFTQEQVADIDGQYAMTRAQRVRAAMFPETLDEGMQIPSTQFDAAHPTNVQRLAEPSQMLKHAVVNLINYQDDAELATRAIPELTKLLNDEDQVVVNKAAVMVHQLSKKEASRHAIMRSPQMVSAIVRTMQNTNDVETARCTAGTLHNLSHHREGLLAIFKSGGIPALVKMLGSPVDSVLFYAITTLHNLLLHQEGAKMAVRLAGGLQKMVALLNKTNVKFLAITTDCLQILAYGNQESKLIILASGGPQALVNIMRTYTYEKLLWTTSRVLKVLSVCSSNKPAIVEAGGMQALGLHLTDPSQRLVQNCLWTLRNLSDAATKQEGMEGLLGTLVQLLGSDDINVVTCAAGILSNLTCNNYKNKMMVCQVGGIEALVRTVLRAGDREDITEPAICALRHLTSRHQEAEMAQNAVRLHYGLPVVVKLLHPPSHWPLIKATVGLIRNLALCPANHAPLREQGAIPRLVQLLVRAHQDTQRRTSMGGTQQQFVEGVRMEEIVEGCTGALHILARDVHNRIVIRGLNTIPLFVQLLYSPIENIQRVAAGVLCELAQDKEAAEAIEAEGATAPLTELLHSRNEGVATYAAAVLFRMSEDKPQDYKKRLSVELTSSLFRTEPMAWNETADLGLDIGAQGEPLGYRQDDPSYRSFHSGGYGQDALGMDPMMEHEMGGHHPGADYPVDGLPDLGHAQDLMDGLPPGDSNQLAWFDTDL
On to Ac-[αAllylPro]DK(Azidoacetyl)[B5(4)]DDAAFN[PyrS2″][3Thi][Bta]Q-NH2 (staple 1-4, 4-11) [I-880], for which the EC50 stood at 6 nM. Still for that read-out and setting: as for Ac-[αAllylPro]D[tBuAla][B5(4)]DDK(Azidoacetyl)AFN[PyrS2″][3Thi][Bta]Q-NH2 (staple 1-4, 4-11) [I-879], the figure is 6 nM; as for Ac-[αAllylPro]D[tBuAla][B5(4)]DDAAFN[PyrS2″][3Thi][Bta]K(Azidoacetyl)-NH2 (staple 1-4, 4-11) [I-878], 6 nM.

A further assay shares this target. Put plainly: fluorescence polarization competition; full-length beta-catenin, competitor 5FAM-TCF4(10-53).
Molecule Ac-[αAllylPro]D[tBuAla][B5(5)]D[Phe(3-COOH)]AAFL[PyrS2″][Phe(2-CF3)][Bta]QL[Ac3c]-NH2 (staple 1-4, 4-11) [I-2389] came in with an IC50 of 72 nM. On the same count and under the same terms, as for Ac-[αAllylPro]D[tBuAla][B5(3)]D[Phe(3-COOH)]AAFL[PyrS2″][Phe(4-F)][Bta]A-NH2 (staple 1-4, 4-11) [I-2263], the figure is 47 nM; as for Ac-[αAllylPro]D[tBuAla][B5(4)][Asp(3,3-Me2)][TfeGA]AAFL[PyrS2″][3Thi][Bta]Q-NH2 (staple 1-4, 4-11) [I-1771], 209 nM.

With Ac-[αAllylPro][Asp(3R-OH)][tBuAla][B5(3)]D[Phe(3-COOH)]AAFL[PyrS2″][3Thi][Bta]A-NH2 (staple 1-4, 4-11) [I-2258], the IC50 amounted to 272 nM. Turning to Ac-[αAllylPro]D[tBuAla][B5(3)]D[Phe(3-COOH)]AAFL[PyrS2″][Phe(3-Ph)][2F3MeF″]Q-NH2 (staple 1-4, 4-11) [I-2256], the concentration for half-maximal inhibition (IC50) came to 8410 nM.

As to Ac-[αAllylPro]D[tBuAla][B5(3)]D[Phe(3-COOH)]AAFL[PyrS2″][Phe(3-F)][Bta]A-NH2 (staple 1-4, 4-11) [I-2261], the IC50 turned out to be 34 nM. On the same count and under the same terms, as for Ac-[αAllylPro]D[tBuAla][B5(5)]D[TfeGA][Lys(iPr)]AFT[PyrS2″][3Thi][Bta]V-NH2 (staple 1-4, 4-11; also: -CH=CH- in each staple reduced to -CH2-CH2-) [I-1770], the figure is 175 nM. For the molecule [ProSAm3]D[tBuAla][B5(3)]D[TfeGA]AAFL[PyrS2″][3Thi][Bta]Q-NH2 (staple (positions not given here); staple 4-11; not fully specified (bridges)) [I-2266], the IC50 amounted to 266 nM. The same measure, in the same setting: for B1 the value was 499 nM; for Ac-[αAllylPro]D[tBuAla][B5(4)]D[TfeGA][Lys(iPr)]AFL[PyrS2″][3Thi][Bta]V-NH2 (staple 1-4, 4-11; also: -CH=CH- in each staple reduced to -CH2-CH2-) [I-1769], 419 nM; for ClAc-[αAllylPro]D[tBuAla][B5(3)]D[Phe(3-COOH)]AAFL[PyrS2″][Phe(2-Cl)][Bta]A-NH2 (staple 1-4, 4-11) [I-2253], 189 nM.

Values taken from patent US20240116985A1, “STAPLED PEPTIDES AND METHODS THEREOF” (priority 2020, published 2024).
